Measurements: patent US20080193453A1

Tests used:
[1] = target: transferrin receptor (TfR, CD71) on cells (human) (UniProt P02786); experiment: cell-based or functional assay
[2] = target: Recombinant (His)6-tagged TfR1 ectodomain (human) (UniProt P02786); experiment: SPR (Biacore 2000), K'd, TfR-(His)6 captured at low density (120 RU) on anti-(His)6 chip
[3] = target: Recombinant (His)6-tagged TfR1 ectodomain (human) (UniProt P02786); experiment: SPR (Biacore 2000), K'd, TfR-(His)6 captured at high density (1650 RU) on anti-(His)6 chip

Sequence of Recombinant (His)6-tagged TfR1 ectodomain (human) (P02786 89-760 limits assumed, form in doubt): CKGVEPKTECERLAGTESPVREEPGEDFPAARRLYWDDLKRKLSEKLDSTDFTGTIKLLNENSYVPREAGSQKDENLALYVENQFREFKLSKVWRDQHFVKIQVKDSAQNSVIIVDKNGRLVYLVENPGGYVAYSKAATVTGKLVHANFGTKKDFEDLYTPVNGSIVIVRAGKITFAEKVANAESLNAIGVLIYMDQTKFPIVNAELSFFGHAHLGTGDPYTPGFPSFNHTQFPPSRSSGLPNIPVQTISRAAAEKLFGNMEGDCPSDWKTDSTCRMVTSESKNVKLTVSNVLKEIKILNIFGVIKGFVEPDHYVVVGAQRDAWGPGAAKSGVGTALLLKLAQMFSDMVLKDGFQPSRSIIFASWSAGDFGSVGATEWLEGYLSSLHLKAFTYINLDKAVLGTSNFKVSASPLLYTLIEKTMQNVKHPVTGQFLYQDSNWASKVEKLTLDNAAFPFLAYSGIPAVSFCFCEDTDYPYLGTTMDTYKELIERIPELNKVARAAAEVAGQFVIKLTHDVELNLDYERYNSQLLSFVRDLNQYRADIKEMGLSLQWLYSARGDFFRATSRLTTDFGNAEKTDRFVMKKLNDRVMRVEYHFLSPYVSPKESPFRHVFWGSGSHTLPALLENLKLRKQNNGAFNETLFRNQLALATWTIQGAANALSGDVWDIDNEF
Sequence of transferrin receptor (TfR, CD71) on cells (human) (P02786 whole entry, the tested form may be a part): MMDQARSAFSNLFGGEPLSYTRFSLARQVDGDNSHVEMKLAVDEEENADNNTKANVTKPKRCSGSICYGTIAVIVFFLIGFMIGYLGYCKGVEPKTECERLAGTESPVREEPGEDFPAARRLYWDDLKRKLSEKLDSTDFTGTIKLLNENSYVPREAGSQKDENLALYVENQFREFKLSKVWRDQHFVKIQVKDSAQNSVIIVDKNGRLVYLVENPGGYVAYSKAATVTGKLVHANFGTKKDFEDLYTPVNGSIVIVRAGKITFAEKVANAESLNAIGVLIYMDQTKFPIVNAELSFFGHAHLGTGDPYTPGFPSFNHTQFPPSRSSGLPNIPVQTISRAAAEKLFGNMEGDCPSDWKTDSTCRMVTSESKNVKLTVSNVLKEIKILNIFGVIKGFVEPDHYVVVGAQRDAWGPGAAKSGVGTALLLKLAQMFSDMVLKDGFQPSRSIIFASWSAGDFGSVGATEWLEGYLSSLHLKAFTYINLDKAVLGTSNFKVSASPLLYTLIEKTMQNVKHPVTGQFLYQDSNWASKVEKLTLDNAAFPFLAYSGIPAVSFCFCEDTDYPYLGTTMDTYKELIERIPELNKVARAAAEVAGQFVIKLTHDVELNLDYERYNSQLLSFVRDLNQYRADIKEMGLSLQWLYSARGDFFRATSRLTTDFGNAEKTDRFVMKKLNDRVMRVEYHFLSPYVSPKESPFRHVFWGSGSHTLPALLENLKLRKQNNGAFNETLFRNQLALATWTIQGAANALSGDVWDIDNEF

With “anti-human TfR (CD71) monoclonal antibody A24” the down-regulation of TfR expression in ex vivo cell cultures from chronic and acute forms of ATL [1] was > 75%, the down-regulation of TfR expression on HTLV-1 infected cells from acute ATL donors in IL-15 or IL-2/IL-15 conditioned medium [1] was > 65% and the Kd [2] was 2.69 nM. It also gave a Kd [3] of 1.02 nM.
